In US20240010735A1 (EISAI R AND D MANAGEMENT, published 2024) one finds binding result, koff and kon data, which are given here for one molecule.

For test [1], the target named is T1, mouse EphA7 extracellular region-Fc-His protein (mouse; human, UniProt Q61772 28-555).
T1 construct: extracellular domain; not shown: Fc region of human IgG1; histidine tag
T1 sequence (looked up): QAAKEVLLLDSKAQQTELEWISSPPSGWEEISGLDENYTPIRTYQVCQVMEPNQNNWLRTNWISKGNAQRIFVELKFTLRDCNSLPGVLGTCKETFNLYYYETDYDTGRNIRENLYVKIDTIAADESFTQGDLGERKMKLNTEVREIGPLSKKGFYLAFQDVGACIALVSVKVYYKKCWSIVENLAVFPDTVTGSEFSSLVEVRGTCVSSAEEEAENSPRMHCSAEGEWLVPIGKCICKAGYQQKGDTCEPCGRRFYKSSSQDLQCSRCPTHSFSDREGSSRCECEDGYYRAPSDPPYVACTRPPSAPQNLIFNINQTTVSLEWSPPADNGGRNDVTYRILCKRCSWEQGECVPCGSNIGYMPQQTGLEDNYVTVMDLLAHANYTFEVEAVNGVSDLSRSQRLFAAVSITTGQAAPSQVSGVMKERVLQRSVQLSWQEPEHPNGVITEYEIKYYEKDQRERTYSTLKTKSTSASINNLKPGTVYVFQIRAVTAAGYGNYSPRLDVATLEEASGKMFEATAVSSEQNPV
Kind of test: ELISA: Fc-His proteins (1 nM) captured on anti-6-His antibody, antibody A 10 µg/mL with human IgG 100 µg/mL, HRP anti-mouse IgG, OD450 as % of mouse EphA4-Fc-His.

Test [2] addresses T2, mouse EphA10 extracellular region-Fc-His protein (mouse; human, UniProt Q8BYG9 23-565).
T2 construct: extracellular domain; not shown: Fc region of human IgG1; histidine tag
T2 sequence (looked up): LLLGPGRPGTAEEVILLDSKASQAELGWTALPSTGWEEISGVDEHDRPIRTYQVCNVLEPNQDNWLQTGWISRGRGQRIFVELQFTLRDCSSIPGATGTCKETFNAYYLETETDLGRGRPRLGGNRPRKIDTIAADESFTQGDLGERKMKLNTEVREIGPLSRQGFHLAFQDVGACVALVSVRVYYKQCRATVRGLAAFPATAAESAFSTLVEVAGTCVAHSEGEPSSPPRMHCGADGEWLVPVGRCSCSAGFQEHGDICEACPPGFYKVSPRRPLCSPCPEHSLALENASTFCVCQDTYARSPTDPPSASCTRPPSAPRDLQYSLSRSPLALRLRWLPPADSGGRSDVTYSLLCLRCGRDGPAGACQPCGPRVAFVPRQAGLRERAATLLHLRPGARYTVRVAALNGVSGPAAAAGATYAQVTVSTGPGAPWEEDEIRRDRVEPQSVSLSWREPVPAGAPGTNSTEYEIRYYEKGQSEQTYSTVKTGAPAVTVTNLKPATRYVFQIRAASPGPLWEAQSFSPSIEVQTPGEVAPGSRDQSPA
The description is as above.

Test [3] has as its target T3, mouse EphA4 extracellular region-SEAP-His protein (mouse).
T3 construct: also called mouse EphA4 extracellular region-SEAP-His 10
Kind of test: SPR (Biacore T200): mouse EphA4 extracellular region-SEAP-His captured on anti-His antibody, antibody A 1.6-100 nM as analyte, 1:1 fit. As to the method: The binding affinity of antibody A against mouse and human EphA4 was determined by surface plasmon resonance (SPR method) employing Biacore T200 (GE Healthcare). First, anti-His antibodies (GE Healthcare, 28-9950-56) were fixed to a sensor chip CM5. Fixation was carried out by amine coupling method employing N-hydroxysuccinimide (NHS) and N-ethyl-N′-(3-dimethylaminopropyl) carbodiimide hydrochloride salt (EDC), and ethanolamine was employed for blocking (the sensor chip and reagents for fixation are all from GE Healthcare). This was diluted with the fixation buffer (10 mM sodium acetate, pH 4.5) to 3.5 μg/mL, and fixed onto the sensor chip according to the protocol accompanying Biacore T200. Mouse or human EphA4 extracellular region-SEAP-His 10 was diluted with the running buffer HBS-EP (GE Healthcare, BR-1001-88), and the solution was sent and captured onto the flow cell for 120 seconds (about 10 RU of captured amount). […] Fitting analysis by 1:1 binding model employing the software accompanying the system, BIA evaluation software, was carried out against the binding reaction curve obtained, and the binding affinity (KD=kd/ka) against mouse and human EphA4 was calculated.

A word on the koff: it is the rate constant with which the complex falls apart. Higher therefore signals fast dissociation. Broadly, the kon is a measure of how fast the partners come together.

T3 sequence (chain, as listed by the source limits assumed): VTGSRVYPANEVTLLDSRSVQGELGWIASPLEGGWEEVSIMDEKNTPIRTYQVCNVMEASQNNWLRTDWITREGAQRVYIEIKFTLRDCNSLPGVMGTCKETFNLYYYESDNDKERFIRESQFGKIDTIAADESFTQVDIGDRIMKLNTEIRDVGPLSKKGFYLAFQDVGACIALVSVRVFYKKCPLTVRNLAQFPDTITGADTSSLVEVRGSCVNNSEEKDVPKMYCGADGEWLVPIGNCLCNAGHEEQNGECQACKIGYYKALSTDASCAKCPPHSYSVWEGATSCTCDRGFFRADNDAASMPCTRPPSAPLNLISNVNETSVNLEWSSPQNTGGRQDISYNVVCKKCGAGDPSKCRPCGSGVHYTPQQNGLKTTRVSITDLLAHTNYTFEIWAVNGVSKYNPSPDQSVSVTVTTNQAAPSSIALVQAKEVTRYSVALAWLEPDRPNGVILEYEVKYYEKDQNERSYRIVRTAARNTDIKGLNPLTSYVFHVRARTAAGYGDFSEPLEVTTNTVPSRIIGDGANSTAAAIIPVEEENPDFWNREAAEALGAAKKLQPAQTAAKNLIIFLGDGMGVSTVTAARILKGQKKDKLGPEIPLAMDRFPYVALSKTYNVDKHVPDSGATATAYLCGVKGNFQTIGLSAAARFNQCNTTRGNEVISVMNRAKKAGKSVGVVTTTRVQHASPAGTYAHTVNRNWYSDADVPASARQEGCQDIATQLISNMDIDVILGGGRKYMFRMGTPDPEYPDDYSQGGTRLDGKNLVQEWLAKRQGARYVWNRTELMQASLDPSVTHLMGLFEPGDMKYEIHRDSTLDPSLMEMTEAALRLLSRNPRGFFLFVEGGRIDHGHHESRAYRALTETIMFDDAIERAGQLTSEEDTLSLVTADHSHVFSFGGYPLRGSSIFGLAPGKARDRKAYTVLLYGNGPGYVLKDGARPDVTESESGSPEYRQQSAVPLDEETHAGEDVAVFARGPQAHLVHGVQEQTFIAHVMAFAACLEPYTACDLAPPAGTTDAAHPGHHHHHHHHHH

B1: mouse anti-EphA4 monoclonal antibody (antibody A) (antibody, mouse IgG1, kappa, V domains shown)
VH: QVQLKQSGPSLVQPSQSLSITCTVSGFSLTRYGVHWVRQSPGKGLEWLGVIWRGGSTDYNAAFMSRLSITKDNSKSQVFFKMNSLQADDTAIYYCAKESLFGVYYDYGYYSMDYWGQGTSVTVSS
VL: DIQMTQSPSSLSASLGERVSLTCRASQEISGYLSWLQQKPDGTIKRLIYAASTLDSGVPKRFSGSRSGSDYSLTISSLESEDFADYYCLQYASYPLTFGAGTKLELKR
notes: purified from hybridoma supernatant
As to B1, the binding result in test [1] is “no binding (tested: 10 µg/mL)”. The binding result in test [2] is on record as “no binding (tested: 10 µg/mL)”. In test [3], this molecule had a koff of 0.000433 s⁻¹ and a kon of 328000 M⁻¹ s⁻¹.
